We go through 7 molecules from US20210269521A1 (L AND L BIOPHARMA, published 2021).

Assay [1] deals with T1, human PD-1 extracellular domain protein expressed in Example 1 (tag not stated) (human, UniProt Q15116 25-170).
T1 construct: extracellular domain; also called PD-1 protein; not shown: human IgG1 Fc or his tag
In words: ELISA, PD-1 coated. On the procedure:
(§1) PD-1 expressed in Example 1 was diluted to a concentration of 1 μg/ml with PBS buffer, pH 7.4, and added to a 96-well microplate (Corning, CLS3590-100EA) at 50 μl per well, thereby incubating in an incubator at 37° C. for 2 hours. After discarding the liquid, a blocking solution of 5% skimmed milk (Shanghai Shenggong Biological Engineering Co., Ltd., A600669-0250) diluted with PBS was added at 200 μl per well, followed by incubating at 37° C. for 3 hours or 4° C. overnight (16-18 hours)) for blocking. Subsequently, the blocking solution was discarded, and the microplate was washed 5 times with PBST buffer (pH 7.4 PBS containing 0.05% tween-20). […] Subsequently, the microplate was washed 5 times with PBST, then 50 μl/well of 1:2500 diluted HRP-labeled secondary antibody (Jackson Immuno Research, 115-035-003) was added, thereby incubating at 37° C. for 1 hour. After washing the microplate 5 times with PBST, 50 μl/well TMB chromogenic substrate (KPL, 52-00-03) was added, then incubated at room temperature for 5-10 min. Finally, 50 μl/well of 1M H₂SO₄ was added to stop the reaction. […] Go microplate reader (ThermoFisher, 51119200) was used to read the absorption value at 450 nm and the EC50 based on the OD value was calculated.
The TIM-3 and PD-1 bispecific antibodies of the present invention were tested for their affinity for TIM-3 and PD-1 using the methods in Example 3 and Example 5, respectively.

Assay [2] concerns the target T2, human TIM-3 extracellular domain-human IgG1 Fc fusion protein (human, UniProt Q8TDQ0 22-199).
T2 construct: Made in house or bought (ACROBiosystems TM3-H5258); also called TIM-3-hFc; not shown: human IgG1 Fc
In words: ELISA.

The target in assay [3] is T2, human TIM-3 extracellular domain-human …. In words: ELISA. On the procedure:
Goat-anti-hFc (Jackson, 109-005-008) was diluted to a concentration of 1 μg/ml with PBS buffer (pH 7.4) and added to a 96-well microplate (Corning, CLS3590-100EA) at a volume of 50 μl/well, then incubated in an incubator at 37° C. for 2 hours (Or the antigen TIM-3 was directly used to coat the microplate with a concentration of 0.5 μg/ml, and then the antibody to be tested was directly added). After discarding the liquid, a blocking solution of 5% skimmed milk (skimmed milk powder purchased from Bright) diluted with PBS was added at 200 μl per well, and the microplate was incubated for 2.5 hours at 37° C. or overnight (16-18 hours) at 4° C. for blocking. The blocking solution was discarded, and the microplate was washed 5 times with PBST buffer (PBS with pH 7.4 containing 0.05% tween-20), then 50 μl/well of 0.5 μg/ml TIM-3-hFc (Example 1) was added and incubated for 2 hours in a 37° C. incubator. After incubation, the microplate was washed 6 times with PB ST. 50 μl/well of supernatant (containing testing antibody) or different concentrations of the antibody to be tested was added, and the microplate was incubated at 37° C. for 2 hours and washed 5 times with PBST. 50 μl/well of 1:2500 diluted HRP-labeled secondary antibody (Jackson Immuno Research, 115-035-003) was added to the microplate, incubating at 37° C. for 1 hour. After washing the microplate 5 times with PBST, 50 μl/well TMB chromogenic substrate (KPL, 52-00-03) was added to the microplate, followed by incubating at room temperature for 10-15 min.
The source holds these as a separate data set. For orientation: An ELISA detects its analyte on a solid surface through an enzyme-linked reagent.

For assay [4] the target is unchanged. In words: ELISA, EC50 of bispecific over EC50 of the monoclonal control.
For assay [5], the target named is T1, human PD-1 extracellular domain protein …. In words: ELISA, PD-1 coated. On the procedure:
as §1
This is another data set of the same source.

Assay [6] shares this target. In words: ELISA, EC50 of bispecific over EC50 of the monoclonal control. On the procedure:
After washing the microplate 5 times with PBST, 50 μl/well TMB chromogenic substrate (KPL, 52-00-03) was added to the microplate, followed by incubating at room temperature for 10-15 min.
as §1

For a further assay, the target named is T3, Human PD-1-his (human, UniProt Q15116 25-170).
T3 construct: extracellular domain; not shown: his tag
In words: SPR Biacore, antibody captured on Protein A, antigen in flow. On the procedure:
(§2) First, Protein A (Thermo Pierce, Cat #21181) was conjugated to the biosensing chip CMS (Cat. #BR-1005-30, GE), and the chip was activated with the newly prepared 50 mM NHS (N-hydroxysuccinimide) and 200 mM EDC [1-ethyl-3-(3-dimethylaminopropyl) carbodiimide hydrochloride], then 10 μg/ml Protein A prepared with 10 mM NaAC (pH 4.0) was injected. […] The flow rate was 30 μl/min, the binding time was 180 seconds and the dissociation time is 300 seconds. Subsequently, the chip was washed for 30s with 10 mM Glycine-HCl (pH 1.5) at 30 μl/min. The data were fitted with a 1:1 Langmuir model using the software of Biacore T200 evaluation version 3.0 (GE), and the affinity value KD was obtained.
(SPR reads the build-up and loss of mass on a sensor chip optically.)

Assay [7] concerns the target T4, human TIM-3 extracellular domain-his tag protein (human, UniProt Q8TDQ0 22-199).
T4 construct: Made in house or bought (ACROBiosystems TM3-H5229); also called TIM-3-his; Human Tim3-his; not shown: his tag
The description is as above. On the procedure: as §2

Like-named read-outs stand apart in the source and are kept apart here.

B1: bispecific antibody LB127 (bispecific antibody, human IgG4 S228P, kappa)
light: DIQMTQSPSSLSASVGDRVTITCHASQGISSNIGWLQQKPGKAFKGLIYQGSNLEDGVPSRFSGSGSGADYTLTISSLQPEDFATYYCVQFAQFPPTFGQGTKLEIKRTVAAPSVFIFPPEIVLTQSPATLSLSPGERATISCRASKGVSTSGYSYLHWYQQKPGQAPRLLIYLASYLESGVPARFSGSGSGTDFTLTISSLEPEDFATYYCQHSRELPLTFGTGTKVEIKRTVAAPSVFIFPPSDEQLKSGTASVVCLLNNFYPREAKVQWKVDNALQSGNSQESVTEQDSKDSTYSLSSTLTLSKADYEKHKVYACEVTHQGLSSPVTKSFNRGEC
heavy: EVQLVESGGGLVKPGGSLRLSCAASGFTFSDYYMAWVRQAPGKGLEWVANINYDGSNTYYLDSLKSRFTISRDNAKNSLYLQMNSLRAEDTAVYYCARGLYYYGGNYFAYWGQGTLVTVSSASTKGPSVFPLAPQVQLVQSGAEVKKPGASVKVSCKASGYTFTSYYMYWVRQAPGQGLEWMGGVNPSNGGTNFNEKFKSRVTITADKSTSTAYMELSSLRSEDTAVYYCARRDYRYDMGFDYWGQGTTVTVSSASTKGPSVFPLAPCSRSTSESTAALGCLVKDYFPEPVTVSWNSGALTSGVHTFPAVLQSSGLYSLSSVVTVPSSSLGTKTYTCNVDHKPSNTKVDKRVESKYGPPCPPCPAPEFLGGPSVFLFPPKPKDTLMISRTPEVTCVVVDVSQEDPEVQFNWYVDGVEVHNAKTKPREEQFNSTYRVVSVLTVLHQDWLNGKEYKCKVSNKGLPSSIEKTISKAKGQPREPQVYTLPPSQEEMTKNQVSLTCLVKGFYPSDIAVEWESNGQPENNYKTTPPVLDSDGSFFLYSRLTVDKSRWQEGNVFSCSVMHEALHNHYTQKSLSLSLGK
Usually EC50 stands for the concentration giving half of the maximal effect. As to B1, the EC50 in assay [1] is 0.423 nM; in assay [2], 0.325 nM.

B2: bispecific antibody LB247 (bispecific antibody, human IgG4 S228P, kappa)
light: EIVLTQSPATLSLSPGERATLSCRASKGVSTSGYSYLHWYQQKPGQAPRLLIYLASYLESGVPARFSGSGSGTDFTLTISSLEPEDFAVYYCQHSRDLPLTFGGGTKVEIKRTVAAPSVFIFPPSDEQLKSGTASVVCLLNNFYPREAKVQWKVDNALQSGNSQESVTEQDSKDSTYSLSSTLTLSKADYEKHKVYACEVTHQGLSSPVTKSFNRGEC
heavy: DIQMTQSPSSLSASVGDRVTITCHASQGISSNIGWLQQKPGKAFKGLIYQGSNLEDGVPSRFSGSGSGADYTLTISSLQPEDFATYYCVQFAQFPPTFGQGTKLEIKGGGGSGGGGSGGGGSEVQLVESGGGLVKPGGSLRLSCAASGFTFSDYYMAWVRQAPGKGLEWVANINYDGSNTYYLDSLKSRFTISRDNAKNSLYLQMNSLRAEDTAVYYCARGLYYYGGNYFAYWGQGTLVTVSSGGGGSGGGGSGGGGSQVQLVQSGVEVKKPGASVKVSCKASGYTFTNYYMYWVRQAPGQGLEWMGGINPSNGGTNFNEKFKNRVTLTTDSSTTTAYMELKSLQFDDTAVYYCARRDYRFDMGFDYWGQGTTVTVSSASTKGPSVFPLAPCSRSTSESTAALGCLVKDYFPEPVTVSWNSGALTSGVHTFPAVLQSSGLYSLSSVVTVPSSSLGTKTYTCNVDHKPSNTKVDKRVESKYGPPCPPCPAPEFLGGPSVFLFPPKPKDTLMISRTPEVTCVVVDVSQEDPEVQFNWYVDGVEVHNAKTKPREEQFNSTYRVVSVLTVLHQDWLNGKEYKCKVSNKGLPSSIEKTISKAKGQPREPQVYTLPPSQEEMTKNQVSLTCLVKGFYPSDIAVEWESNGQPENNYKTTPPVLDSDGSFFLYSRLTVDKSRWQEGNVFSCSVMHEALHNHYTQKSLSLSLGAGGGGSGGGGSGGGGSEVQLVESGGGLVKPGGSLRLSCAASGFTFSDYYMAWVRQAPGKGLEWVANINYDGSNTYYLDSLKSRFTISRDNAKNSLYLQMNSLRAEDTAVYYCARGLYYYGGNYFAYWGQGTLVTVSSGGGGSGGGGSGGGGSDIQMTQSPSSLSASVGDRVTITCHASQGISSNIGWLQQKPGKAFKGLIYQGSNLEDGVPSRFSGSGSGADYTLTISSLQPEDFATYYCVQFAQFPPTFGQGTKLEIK
The term Kd denotes the constant that tells how readily two partners part at equilibrium. A low value points to a tighter complex. By koff is commonly meant the first-order rate constant of dissociation. By kon is commonly meant the second-order rate constant of association. Lower therefore signals slower complex formation. Take B2: the EC50 in assay [3] amounted to 1.86 nM; in assay [5] it was 0.19 nM. The “Multiple of EC50 variation” value in assay [4] worked out at 2.38 ratio; in assay [6], 1.98 ratio. For the same molecule, the Kd with Human PD-1-his stood at 7.34 nM; in assay [7], 8.29 nM. Further, the koff with Human PD-1-his is 0.00259 s⁻¹; in assay [7], 0.00332 s⁻¹. The on-rate (kon) with Human PD-1-his turned out to be 353000 M⁻¹ s⁻¹; in assay [7], 401000 M⁻¹ s⁻¹.

B3: bispecific antibody LB123 (bispecific antibody, human IgG4 S228P, kappa)
light: EIVLTQSPATLSLSPGERATISCRASKGVSTSGYSYLHWYQQKPGQAPRLLIYLASYLESGVPARFSGSGSGTDFTLTISSLEPEDFATYYCQHSRELPLTFGTGTKVEIKRTVAAPSVFIFPPSDEQLKSGTASVVCLLNNFYPREAKVQWKVDNALQSGNSQESVTEQDSKDSTYSLSSTLTLSKADYEKHKVYACEVTHQGLSSPVTKSFNRGEC
heavy: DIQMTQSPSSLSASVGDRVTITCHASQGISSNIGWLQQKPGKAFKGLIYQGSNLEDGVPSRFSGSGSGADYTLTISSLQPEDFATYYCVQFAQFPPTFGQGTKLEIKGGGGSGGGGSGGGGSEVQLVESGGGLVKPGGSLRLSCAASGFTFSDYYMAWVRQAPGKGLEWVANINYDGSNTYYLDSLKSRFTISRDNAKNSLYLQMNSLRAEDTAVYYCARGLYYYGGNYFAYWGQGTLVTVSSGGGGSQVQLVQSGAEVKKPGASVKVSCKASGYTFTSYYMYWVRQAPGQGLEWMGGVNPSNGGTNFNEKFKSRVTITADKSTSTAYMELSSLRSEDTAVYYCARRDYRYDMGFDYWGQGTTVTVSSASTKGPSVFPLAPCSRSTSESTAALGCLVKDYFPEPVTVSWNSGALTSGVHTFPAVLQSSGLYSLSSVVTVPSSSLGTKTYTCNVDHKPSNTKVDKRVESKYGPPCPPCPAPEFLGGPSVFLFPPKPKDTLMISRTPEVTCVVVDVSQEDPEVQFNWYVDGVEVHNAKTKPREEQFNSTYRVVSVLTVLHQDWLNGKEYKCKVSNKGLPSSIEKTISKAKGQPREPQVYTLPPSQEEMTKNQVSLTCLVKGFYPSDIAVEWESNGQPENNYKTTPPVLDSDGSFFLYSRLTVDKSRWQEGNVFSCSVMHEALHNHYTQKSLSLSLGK
On to B3, for which the EC50 in assay [1] turned out to be 0.216 nM; in assay [2], 0.181 nM.

B4: bispecific antibody LB124 (bispecific antibody, human IgG4 S228P, kappa)
light: EIVLTQSPATLSLSPGERATISCRASKGVSTSGYSYLHWYQQKPGQAPRLLIYLASYLESGVPARFSGSGSGTDFTLTISSLEPEDFATYYCQHSRELPLTFGTGTKVEIKRTVAAPSVFIFPPSDEQLKSGTASVVCLLNNFYPREAKVQWKVDNALQSGNSQESVTEQDSKDSTYSLSSTLTLSKADYEKHKVYACEVTHQGLSSPVTKSFNRGEC
heavy: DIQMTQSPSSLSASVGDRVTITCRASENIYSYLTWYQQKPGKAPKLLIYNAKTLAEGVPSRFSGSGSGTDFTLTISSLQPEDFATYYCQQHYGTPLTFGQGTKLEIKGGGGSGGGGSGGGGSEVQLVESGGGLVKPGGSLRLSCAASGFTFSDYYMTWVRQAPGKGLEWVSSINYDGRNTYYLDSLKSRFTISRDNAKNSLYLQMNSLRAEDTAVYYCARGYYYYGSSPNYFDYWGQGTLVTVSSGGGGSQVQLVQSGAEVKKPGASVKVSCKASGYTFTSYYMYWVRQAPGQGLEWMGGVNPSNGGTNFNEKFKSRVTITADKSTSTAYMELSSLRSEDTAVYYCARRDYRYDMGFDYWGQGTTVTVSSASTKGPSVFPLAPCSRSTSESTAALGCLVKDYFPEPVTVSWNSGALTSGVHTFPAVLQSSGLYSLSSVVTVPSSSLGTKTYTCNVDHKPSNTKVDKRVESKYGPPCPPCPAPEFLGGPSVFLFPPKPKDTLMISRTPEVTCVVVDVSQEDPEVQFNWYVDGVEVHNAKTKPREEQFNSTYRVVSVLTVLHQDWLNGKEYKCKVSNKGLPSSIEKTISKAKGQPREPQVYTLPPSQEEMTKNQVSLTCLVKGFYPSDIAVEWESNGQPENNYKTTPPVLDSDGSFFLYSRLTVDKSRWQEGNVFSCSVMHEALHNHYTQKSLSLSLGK
Turning to B4, the EC50 is 0.383 nM in assay [1] and 0.438 nM in assay [2].

B5: bispecific antibody LB147 (bispecific antibody, human IgG4 S228P, kappa)
light: DIQMTQSPSSLSASVGDRVTITCRASENIYSYLTWYQQKPGKAPKLLIYNAKTLAEGVPSRFSGSGSGTDFTLTISSLQPEDFATYYCQQHYGTPLTFGQGTKLEIKGGGGSGGGGSGGGGSEVQLVESGGGLVKPGGSLRLSCAASGFTFSDYYMTWVRQAPGKGLEWVSSINYDGRNTYYLDSLKSRFTISRDNAKNSLYLQMNSLRAEDTAVYYCARGYYYYGSSPNYFDYWGQGTLVTVSSGGGGSGGGGSGGGGSEIVLTQSPATLSLSPGERATLSCRASKGVSTSGYSYLHWYQQKPGQAPRLLIYLASYLESGVPARFSGSGSGTDFTLTISSLEPEDFAVYYCQHSRDLPLTFGGGTKVEIKRTVAAPSVFIFPPSDEQLKSGTASVVCLLNNFYPREAKVQWKVDNALQSGNSQESVTEQDSKDSTYSLSSTLTLSKADYEKHKVYACEVTHQGLSSPVTKSFNRGEC
heavy: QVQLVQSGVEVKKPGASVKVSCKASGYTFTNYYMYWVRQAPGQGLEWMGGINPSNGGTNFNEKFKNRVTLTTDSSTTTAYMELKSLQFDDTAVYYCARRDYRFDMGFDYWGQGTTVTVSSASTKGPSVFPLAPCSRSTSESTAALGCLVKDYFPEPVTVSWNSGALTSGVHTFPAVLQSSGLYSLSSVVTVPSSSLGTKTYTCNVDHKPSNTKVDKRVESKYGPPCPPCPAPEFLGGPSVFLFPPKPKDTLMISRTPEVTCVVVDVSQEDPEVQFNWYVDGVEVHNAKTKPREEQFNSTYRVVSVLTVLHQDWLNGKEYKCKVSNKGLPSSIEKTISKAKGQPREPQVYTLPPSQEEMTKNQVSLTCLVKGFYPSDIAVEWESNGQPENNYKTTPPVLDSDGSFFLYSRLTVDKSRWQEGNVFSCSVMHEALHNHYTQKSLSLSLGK
notes: Ab32VL-(G4S)3-ab32VH-(G4S)3-PemVL-κ with PemVH-hIgG4
As for B5, the results for the concentration giving a half-maximal response (EC50) in assay [3] and in assay [5] were 0.62 nM and 0.056 nM, respectively. Moreover, the “Multiple of EC50 variation” value came to 0.79 ratio in assay [4] and 0.81 ratio in assay [6].

B6: bispecific antibody LB245 (bispecific antibody, human IgG4 S228P, kappa)
light: EIVLTQSPATLSLSPGERATLSCRASKGVSTSGYSYLHWYQQKPGQAPRLLIYLASYLESGVPARFSGSGSGTDFTLTISSLEPEDFAVYYCQHSRDLPLTFGGGTKVEIKRTVAAPSVFIFPPSDEQLKSGTASVVCLLNNFYPREAKVQWKVDNALQSGNSQESVTEQDSKDSTYSLSSTLTLSKADYEKHKVYACEVTHQGLSSPVTKSFNRGECGGGGSGGGGSGGGGSEVQLVESGGGLVKPGGSLRLSCAASGFTFSDYYMAWVRQAPGKGLEWVANINYDGSNTYYLDSLKSRFTISRDNAKNSLYLQMNSLRAEDTAVYYCARGLYYYGGNYFAYWGQGTLVTVSSGGGGSGGGGSGGGGSDIQMTQSPSSLSASVGDRVTITCHASQGISSNIGWLQQKPGKAFKGLIYQGSNLEDGVPSRFSGSGSGADYTLTISSLQPEDFATYYCVQFAQFPPTFGQGTKLEIK
heavy: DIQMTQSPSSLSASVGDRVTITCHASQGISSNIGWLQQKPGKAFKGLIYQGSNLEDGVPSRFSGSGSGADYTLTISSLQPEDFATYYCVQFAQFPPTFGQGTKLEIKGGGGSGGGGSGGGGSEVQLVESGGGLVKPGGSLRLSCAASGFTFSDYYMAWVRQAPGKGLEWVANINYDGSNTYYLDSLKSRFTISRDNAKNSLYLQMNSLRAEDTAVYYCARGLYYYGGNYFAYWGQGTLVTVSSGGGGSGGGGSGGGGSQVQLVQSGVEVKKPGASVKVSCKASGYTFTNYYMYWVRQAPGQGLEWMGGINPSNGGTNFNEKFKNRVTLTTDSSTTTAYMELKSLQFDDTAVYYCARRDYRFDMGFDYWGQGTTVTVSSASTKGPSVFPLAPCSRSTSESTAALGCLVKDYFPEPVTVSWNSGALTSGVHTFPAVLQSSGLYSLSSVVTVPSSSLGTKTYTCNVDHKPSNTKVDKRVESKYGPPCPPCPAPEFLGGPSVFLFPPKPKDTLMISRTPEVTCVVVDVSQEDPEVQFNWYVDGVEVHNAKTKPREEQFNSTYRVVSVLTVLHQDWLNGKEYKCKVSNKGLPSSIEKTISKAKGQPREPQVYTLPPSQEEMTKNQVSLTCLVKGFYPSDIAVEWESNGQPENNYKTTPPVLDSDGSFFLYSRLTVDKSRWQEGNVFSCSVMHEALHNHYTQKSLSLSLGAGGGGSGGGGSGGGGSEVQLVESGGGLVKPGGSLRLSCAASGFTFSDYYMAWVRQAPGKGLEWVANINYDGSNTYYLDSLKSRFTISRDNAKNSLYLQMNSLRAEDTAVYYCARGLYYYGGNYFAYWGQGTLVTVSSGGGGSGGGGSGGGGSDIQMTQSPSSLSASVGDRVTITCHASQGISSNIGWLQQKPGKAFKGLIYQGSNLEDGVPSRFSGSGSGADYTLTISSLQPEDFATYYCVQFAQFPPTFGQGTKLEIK
As for B6, the EC50 in assay [3] came to 0.391 nM; in assay [5], 0.342 nM. Also, the “Multiple of EC50 variation” value in assay [4] was determined as 2.46 ratio; in assay [6] it was 1.3 ratio.

B7: bispecific antibody LB246 (bispecific antibody, human IgG4 S228P, kappa)
light: DIQMTQSPSSLSASVGDRVTITCHASQGISSNIGWLQQKPGKAFKGLIYQGSNLEDGVPSRFSGSGSGADYTLTISSLQPEDFATYYCVQFAQFPPTFGQGTKLEIKGGGGSGGGGSGGGGSEVQLVESGGGLVKPGGSLRLSCAASGFTFSDYYMAWVRQAPGKGLEWVANINYDGSNTYYLDSLKSRFTISRDNAKNSLYLQMNSLRAEDTAVYYCARGLYYYGGNYFAYWGQGTLVTVSSGGGGSGGGGSGGGGSEIVLTQSPATLSLSPGERATLSCRASKGVSTSGYSYLHWYQQKPGQAPRLLIYLASYLESGVPARFSGSGSGTDFTLTISSLEPEDFAVYYCQHSRDLPLTFGGGTKVEIKRTVAAPSVFIFPPSDEQLKSGTASVVCLLNNFYPREAKVQWKVDNALQSGNSQESVTEQDSKDSTYSLSSTLTLSKADYEKHKVYACEVTHQGLSSPVTKSFNRGECGGGGSGGGGSGGGGSEVQLVESGGGLVKPGGSLRLSCAASGFTFSDYYMAWVRQAPGKGLEWVANINYDGSNTYYLDSLKSRFTISRDNAKNSLYLQMNSLRAEDTAVYYCARGLYYYGGNYFAYWGQGTLVTVSSGGGGSGGGGSGGGGSDIQMTQSPSSLSASVGDRVTITCHASQGISSNIGWLQQKPGKAFKGLIYQGSNLEDGVPSRFSGSGSGADYTLTISSLQPEDFATYYCVQFAQFPPTFGQGTKLEIK
heavy: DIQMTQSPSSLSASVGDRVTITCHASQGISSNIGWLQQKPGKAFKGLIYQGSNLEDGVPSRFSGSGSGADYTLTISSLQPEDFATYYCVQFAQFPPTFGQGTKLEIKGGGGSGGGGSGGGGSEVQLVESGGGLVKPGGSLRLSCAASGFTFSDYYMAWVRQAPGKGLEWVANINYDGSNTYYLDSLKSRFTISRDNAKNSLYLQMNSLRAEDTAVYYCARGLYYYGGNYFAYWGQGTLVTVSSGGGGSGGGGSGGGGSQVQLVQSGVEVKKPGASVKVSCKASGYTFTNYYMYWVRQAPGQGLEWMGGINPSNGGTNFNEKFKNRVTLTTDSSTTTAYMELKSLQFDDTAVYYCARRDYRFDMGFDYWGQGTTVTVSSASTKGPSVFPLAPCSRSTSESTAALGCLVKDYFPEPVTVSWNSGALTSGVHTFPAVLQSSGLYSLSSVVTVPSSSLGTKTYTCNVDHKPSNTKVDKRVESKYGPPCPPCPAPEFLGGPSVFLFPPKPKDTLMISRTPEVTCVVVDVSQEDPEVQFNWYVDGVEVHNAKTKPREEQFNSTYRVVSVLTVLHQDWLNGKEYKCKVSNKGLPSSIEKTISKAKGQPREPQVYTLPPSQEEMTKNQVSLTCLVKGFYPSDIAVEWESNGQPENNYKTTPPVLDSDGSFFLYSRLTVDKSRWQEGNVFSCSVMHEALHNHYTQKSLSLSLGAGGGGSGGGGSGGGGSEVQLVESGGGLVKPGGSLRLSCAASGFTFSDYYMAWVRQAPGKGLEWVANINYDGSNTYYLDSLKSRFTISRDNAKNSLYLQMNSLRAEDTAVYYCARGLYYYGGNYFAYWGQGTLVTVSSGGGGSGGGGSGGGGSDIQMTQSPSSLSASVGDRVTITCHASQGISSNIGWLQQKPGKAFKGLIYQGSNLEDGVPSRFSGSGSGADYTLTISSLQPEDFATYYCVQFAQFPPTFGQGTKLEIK
For the molecule B7, the EC50 in assay [3] was found to be 2.05 nM; in assay [5], 5.51 nM. Also, the “Multiple of EC50 variation” value in assay [4] was found to be 12.9 ratio; in assay [6] it was 21 ratio.
